Patent US20220127354A1 (Amgen, published 2022)
Changes are numbered by the printed parent chain. Numbers in names are those of the source. Each block holds one binder with its values, some of them ahead of it.

What was measured:
[1] = biological target: T1, rhCDH19(1-43)::FLAG::rhCDH19(44-65)::caCDH19(65-770) (construct S, rh EC1a) (rhesus macaque/dog chimera); assay: flow cytometry, transfected 293T cells, 2 mM CaCl2;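 further: antibody binding read out as cell-bound Alexa647 label signal, with mock-transfected cells as controls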
T1 construct: leader (1-43 of the entry) left out
Description: (§1) The following binding assay was completed in presence of 2 mM CaCl₂). […] Cells were then washed one time and the amount of cell associated Alexa647-labelled Ab was quantitated by flow cytometry. The experiments included mock transfected controls.

[2] = biological target: T2, rhCDH19(1-43)::FLAG::rhCDH19(44-141)::raCDH19(140-247)::rhCDH19(250-772) (construct V, ra EC2) (rhesus macaque/rat chimera, UniProt Q9H159 44-772 (human entry)); assay: flow cytometry, transfected 293T cells, 2 mM CaCl2;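 further: antibody binding read out as cell-bound Alexa647 label signal, with mock-transfected cells as controls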
T2 construct: leader (1-43 of the entry) left out
T2 chain: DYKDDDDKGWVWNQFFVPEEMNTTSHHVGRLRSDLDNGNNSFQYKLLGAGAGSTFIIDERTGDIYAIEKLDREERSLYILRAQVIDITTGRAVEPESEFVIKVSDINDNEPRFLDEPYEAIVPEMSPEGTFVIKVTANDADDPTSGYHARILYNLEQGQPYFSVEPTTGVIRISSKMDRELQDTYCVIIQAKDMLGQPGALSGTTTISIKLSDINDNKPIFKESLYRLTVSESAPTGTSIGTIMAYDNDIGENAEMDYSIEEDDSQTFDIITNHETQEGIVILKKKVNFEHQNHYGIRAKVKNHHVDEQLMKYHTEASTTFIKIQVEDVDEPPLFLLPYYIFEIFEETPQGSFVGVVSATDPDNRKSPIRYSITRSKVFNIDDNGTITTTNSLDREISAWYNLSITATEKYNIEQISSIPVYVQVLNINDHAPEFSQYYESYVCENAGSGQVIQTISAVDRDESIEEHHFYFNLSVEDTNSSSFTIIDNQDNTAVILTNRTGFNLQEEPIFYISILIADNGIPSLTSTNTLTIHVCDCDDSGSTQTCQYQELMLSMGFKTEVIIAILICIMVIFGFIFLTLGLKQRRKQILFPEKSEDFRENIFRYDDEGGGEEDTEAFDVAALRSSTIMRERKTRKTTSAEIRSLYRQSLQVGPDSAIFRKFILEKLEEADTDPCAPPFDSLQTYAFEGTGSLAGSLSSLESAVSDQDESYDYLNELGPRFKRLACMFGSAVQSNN
Description: as §1

[3] = biological target: T3, rhCDH19(1-43)::FLAG::rhCDH19(44-141)::caCDH19(141-770) (construct R, rh EC1) (rhesus macaque/dog chimera); assay: flow cytometry, transfected 293T cells, 2 mM CaCl2;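 further: antibody binding read out as cell-bound Alexa647 label signal, with mock-transfected cells as controls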
T3 construct: leader (1-43 of the entry) left out
Description: as §1

[4] = biological target: T4, muCDH19(44-770) with Flag tag (construct I, Mu EC1-5) (mouse); assay: flow cytometry, transfected 293T cells, 2 mM CaCl2
T4 construct: leader left out; the entry starts at residue 44; also called Mo EC1-5; mouse Cadherin19
T4 chain: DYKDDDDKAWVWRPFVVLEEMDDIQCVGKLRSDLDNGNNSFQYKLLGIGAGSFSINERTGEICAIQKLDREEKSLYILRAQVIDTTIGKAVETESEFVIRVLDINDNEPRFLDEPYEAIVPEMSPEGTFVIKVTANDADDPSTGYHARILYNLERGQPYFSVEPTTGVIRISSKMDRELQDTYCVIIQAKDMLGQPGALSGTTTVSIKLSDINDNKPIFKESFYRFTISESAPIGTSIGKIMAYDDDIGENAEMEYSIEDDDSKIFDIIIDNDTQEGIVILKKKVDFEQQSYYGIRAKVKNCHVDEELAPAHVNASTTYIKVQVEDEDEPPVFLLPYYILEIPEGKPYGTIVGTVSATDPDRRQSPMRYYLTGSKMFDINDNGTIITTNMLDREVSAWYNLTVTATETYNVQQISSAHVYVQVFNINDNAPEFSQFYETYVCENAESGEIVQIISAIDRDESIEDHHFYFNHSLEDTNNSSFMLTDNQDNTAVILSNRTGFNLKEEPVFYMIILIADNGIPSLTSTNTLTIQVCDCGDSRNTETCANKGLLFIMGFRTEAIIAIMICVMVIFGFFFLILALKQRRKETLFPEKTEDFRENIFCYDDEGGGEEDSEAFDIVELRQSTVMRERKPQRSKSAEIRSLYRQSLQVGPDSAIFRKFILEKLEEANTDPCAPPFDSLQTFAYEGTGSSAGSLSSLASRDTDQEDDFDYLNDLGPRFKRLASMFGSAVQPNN
Description: as §1

Cyno Cadherin-19 = biological target: T5, Cyno Cadherin-19 (cynomologous monkey (Macaca …, UniProt Q9H159 44-772 (human entry))); assay: FACS, recombinant cynomologous CDH-19
T5 construct: also called cynomologous monkey CDH-19
T5 chain: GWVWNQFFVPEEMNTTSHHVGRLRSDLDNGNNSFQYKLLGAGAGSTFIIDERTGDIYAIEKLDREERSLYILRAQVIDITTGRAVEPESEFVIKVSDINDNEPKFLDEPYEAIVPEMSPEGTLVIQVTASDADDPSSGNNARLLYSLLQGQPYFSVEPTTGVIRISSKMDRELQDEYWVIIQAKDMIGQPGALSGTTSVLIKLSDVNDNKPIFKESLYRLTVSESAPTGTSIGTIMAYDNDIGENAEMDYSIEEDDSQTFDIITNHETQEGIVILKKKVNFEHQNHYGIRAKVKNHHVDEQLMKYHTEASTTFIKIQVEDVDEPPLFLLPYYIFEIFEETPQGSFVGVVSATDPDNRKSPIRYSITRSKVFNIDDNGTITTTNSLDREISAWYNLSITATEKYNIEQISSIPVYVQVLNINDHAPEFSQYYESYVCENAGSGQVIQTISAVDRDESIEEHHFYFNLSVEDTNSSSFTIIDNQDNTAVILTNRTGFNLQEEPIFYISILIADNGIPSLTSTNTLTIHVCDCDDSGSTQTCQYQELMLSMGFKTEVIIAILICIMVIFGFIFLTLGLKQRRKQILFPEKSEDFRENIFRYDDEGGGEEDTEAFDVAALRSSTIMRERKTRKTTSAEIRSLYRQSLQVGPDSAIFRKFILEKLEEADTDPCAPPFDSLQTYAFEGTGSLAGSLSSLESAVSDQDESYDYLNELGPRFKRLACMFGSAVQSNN

[5] = biological target: T6, muCDH19(44-247)::huCDH19(250-364)::muCDH19(363-770) with Flag tag (construct F, Hu EC3) (human/mouse chimera); assay: flow cytometry, transfected 293T cells
T6 construct: leader left out; the entry starts at residue 44; also called C137911
Excerpt: (§2) The experiment included assaying the anti-CDH19 antibodies against mouse Cadherin19 to determine suitability for binning on these human/mouse chimeras.

[6] = biological target: T7, muCDH19(44-139)::huCDH19(142-364)::muCDH19(363-770) with Flag tag (construct E, Hu EC2-3) (human/mouse chimera); assay: flow cytometry, transfected 293T cells
T7 construct: leader left out; the entry starts at residue 44; also called C137847
Excerpt: as §2

B2: anti-CDH19 antibody 4A2 (Ab ID 13592) (antibody, human IgG1, kappa, V domains shown)
VH: QVQLQESGPGLVKPSQTLSLTCTVSGGSISSSGYYWSWIRQHPGKGLEWIGYIYYTGSAYYNPSLKSRVTISVDTSKNQFSLKLSSVTAADTAVYYCARDGSSGWYFQYWGQGTLVTVSS
VL: EIVLTQSPGTLSLSPGERATLSCRASRNISSSYLAWYQQKPGQAPRLLIYGPSSRATGIPDRFSGSGSGTDFTLTISRLEPEDFTVYYCQQYGSSFTFGPGTKVDIKR
notes: Bin 4
binding result (Cyno Cadherin-19): binds

B3: hu anti-<huCDH19> 26D1.1 (Ab ID 13882) (antibody, human IgG1, lambda, V domains shown)
VH: QVQLVQSGAEVKKPGASVKVSCKASRYTFTSYYMSWVRQAPGQGLEWMGIIHPSGGDTTYAQKFQGRVTMTGDTSTSTVYMELSSLRSEDTAVYYCARGGIKLWLHFDYWGQGTLVTVSS
VL: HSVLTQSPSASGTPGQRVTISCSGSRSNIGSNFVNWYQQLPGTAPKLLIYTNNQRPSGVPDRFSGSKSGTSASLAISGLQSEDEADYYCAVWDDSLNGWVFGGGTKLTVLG
notes: huIgG1z / huLLC-C2; Bin 2
binding result [1]: binds
binding result [2]: no binding (tested: 5 ug/ml)
binding result [3]: binds
binding result [4]: no binding (tested: 5 ug/ml)
binding result (Cyno Cadherin-19): binds

B4: hu anti-<huCDH19> 25F8.1 (1-469)(F90Y) VH::huIgG1z + 25F8.1 (1-235)(K45Q,S102A,D111E) VL::huLLC-C2 (Ab ID 14096) (antibody, V domains shown)
VH: B3 VH with R26G, M34I, S35H, H52N, D57S, T59R, G72R, K102Q
VL: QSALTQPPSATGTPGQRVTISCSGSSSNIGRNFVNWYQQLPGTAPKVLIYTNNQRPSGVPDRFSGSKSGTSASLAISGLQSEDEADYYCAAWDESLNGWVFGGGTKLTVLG
notes: Engineered variant of 25F8; the entries already carry the changes; Bin 2
binding result [2]: no binding (tested: 5 ug/ml)

B5: hu anti-<huCDH19> 4B10 (Ab ID 13590) (antibody, V domains shown)
VH: QVQLVESGGGVVQPGRSLRLSCAASGFTFSSYDMHWVRQAPGKGLEWVAVISYDGTNEYYADSVKGRFTISRDTSKNTLYLQMNSLRAEDTAVYYCARERYFDWSFDYWGQGTLVSVSS
VL: EIVLTQSPGTLSLSPGERATLSCRASQSVSNTYLAWYHQRPGQAPRLLIYGASSRATGIPDRFSGSGSGTDFALTISSLEPEDFAVYYCQQYSNSWTFGQGTKVEIKR
notes: huIgG1z / huKLC; Bin 4
binding result [4]: no binding (tested: 5 ug/ml)
binding result (Cyno Cadherin-19): binds
binding result [5]: binds
binding result [6]: binds

B6: anti-CDH19 antibody 2G6 (Ab ID 13588) (antibody, human IgG1, lambda, V domains shown)
VH: QVQLVESGGGVVQPGRSLRLSCAASGFTFSSYGMHWVRQAPGKGLEWVAFIWYDGSNKYYADSVKDRFTISRDNSKNTLYLQMKSLRAEDTAVYYCARRAGIIGTIGYYYGMDVWGQGTTVTVSS
VL: SYELTQPPSVSVSPGQTASITCSGDRLGEKYTCWYQQRPGQSPLLVIYQDTKRPSGIPERFSGSNSGNTATLTISGTQAMDEADYYCQAWDSSTVVFGGGTKLTVLG
notes: Bin 4
binding result (Cyno Cadherin-19): binds
binding result [5]: binds
binding result [6]: binds

Other lines, results leading:

binding result [1]: no binding (tested: 5 ug/ml)
binding result [2]: no binding (tested: 5 ug/ml)
binding result [3]: binds
binding result [4]: no binding (tested: 5 ug/ml)
binding result (Cyno Cadherin-19): binds
B1: hu anti-<huCDH19> 4A9 (Ab ID 13589) (antibody, human IgG1, lambda, V domains shown)
VH: QVQLQESGPGLVKPSETLSLTCTVSGGSISGYYWSWIRQPPGKGLEWFAYFSYSGSTNYNPSLKSRVTLSVDTSKNQFSLKLSSVTAADTAVYYCARNWAFHFDFWGQGTLVTVSS
VL: QSVLTQPPSVSGAPGQRVTISCTGSSSNIGTGYAVHWYQQFPGTAPKLLIYGNNNRPSGVPDRFSGSKSGTSASLAITGLQAEDEADYYCQSYDSRLSGWVFGGGTKLTVLG
notes: huIgG1z / huLLC-C1; Bin 1

binding result [4]: binds
B7: hu anti-<huCDH19> 23A10.3 (1-474)(L92Q) VH::huIgG1z + 23A10.3 (1-231)(C42S) VL::huLLC-C2 (Ab ID 14077) (antibody, V domains shown)
VH: B6 VH with S31R, M34I, F50V, D66G, K84N, T91S, I103P, I106T
VL: B6 VL with T32V, C33S, R38K, L44I, T51N, R53W
notes: Engineered variant of 23A10; the entries already carry the changes; Bin 4
